Measured values: PMC7544203

Key:
YTHDC1 YTH domain [1] = target: T1, YTHDC1 YTH domain (Homo sapiens, UniProt Q96MU7 345-509); experiment: ITC
YTHDC1 YTH domain [2] = target: T1, YTHDC1 YTH domain; experiment: X-ray crystallography

Binder	binding result (YTHDC1 YTH domain [1])	also measured
CGCGGACTCTG (ssDNA, N6-methyladenine at A6) [11-nt N6mA ssDNA]		Kd (YTHDC1 YTH domain [1]): 10 nM
CGCGGACTCTG (ssDNA, none) [unmodified 11-nt ssDNA]	no binding	
CGCGGACUCUG (ssRNA, none) [unmodified 11-nt ssRNA]	no binding	
CGCGGACTTC (ssDNA, N6-methyladenine at A6) [10-nt N6mA ssDNA]		binding result (YTHDC1 YTH domain [2]): binds
